Here are results for one substance from patent US20100285028A1.

The target of the assay is von Willebrand factor (mouse) (UniProt Q8CIZ8). In words: cell-based or functional assay.
Sequence of UniProt Q8CIZ8 (Q8CIZ8 764-2813 limits assumed): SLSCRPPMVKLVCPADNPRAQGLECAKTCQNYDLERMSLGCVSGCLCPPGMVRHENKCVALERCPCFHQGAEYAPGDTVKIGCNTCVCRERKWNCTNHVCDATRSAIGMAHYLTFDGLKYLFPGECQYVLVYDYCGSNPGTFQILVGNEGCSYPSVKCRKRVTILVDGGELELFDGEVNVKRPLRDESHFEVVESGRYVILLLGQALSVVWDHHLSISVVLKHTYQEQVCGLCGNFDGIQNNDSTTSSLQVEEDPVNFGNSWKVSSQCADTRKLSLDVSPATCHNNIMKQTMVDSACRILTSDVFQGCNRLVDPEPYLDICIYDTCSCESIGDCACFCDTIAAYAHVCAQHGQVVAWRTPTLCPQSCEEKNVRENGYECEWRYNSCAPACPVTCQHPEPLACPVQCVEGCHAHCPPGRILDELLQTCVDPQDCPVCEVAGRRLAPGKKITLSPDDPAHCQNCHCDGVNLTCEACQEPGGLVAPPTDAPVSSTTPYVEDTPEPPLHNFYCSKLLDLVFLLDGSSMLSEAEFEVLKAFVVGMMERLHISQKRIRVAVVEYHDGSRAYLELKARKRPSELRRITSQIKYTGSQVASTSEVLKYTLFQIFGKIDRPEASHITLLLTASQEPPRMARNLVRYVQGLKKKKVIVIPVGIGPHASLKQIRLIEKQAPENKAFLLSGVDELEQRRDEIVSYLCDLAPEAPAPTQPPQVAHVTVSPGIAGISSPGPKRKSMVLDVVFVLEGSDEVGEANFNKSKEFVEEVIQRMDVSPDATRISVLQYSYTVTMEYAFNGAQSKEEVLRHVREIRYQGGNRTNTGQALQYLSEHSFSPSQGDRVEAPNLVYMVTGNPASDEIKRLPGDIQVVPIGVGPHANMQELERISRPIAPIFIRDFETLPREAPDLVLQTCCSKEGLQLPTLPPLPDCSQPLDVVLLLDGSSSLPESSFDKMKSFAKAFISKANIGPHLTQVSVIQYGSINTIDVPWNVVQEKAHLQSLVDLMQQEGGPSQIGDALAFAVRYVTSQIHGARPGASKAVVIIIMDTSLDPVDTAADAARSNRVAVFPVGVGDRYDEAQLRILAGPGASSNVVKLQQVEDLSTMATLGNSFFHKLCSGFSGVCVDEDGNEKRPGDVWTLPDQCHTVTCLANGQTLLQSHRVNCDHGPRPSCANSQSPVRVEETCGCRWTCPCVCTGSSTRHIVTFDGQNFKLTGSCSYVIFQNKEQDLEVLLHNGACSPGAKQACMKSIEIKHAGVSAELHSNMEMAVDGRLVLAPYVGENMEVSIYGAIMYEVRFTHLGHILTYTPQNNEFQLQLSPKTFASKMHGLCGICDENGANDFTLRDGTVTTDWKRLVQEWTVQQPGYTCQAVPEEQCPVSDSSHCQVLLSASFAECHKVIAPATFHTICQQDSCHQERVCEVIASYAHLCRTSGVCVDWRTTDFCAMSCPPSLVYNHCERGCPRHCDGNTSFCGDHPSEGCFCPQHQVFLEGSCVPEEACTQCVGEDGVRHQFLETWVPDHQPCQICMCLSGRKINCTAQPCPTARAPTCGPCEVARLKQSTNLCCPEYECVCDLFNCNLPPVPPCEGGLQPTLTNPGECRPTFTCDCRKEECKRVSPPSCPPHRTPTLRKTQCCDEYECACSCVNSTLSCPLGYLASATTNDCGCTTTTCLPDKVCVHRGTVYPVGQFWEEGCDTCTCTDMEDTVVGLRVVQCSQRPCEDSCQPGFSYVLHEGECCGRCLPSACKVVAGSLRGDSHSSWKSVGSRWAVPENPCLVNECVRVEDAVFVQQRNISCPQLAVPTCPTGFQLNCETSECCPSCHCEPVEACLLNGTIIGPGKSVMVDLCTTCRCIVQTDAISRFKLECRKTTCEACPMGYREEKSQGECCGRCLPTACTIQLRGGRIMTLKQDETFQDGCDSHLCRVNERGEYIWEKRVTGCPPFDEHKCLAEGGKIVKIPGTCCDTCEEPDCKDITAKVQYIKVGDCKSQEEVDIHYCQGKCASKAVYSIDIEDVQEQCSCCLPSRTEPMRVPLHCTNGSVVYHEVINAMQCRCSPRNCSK

For “Asgr-1 chain of the Ashwell receptor (from UniProt P34927 1-284)”, the circulating plasma vWF abundance in mice lacking Asgr-1 was 1.5 fold.
